Experimental data reported in the supplement of paper PMC10567573.
± gives the standard deviation.

Assay: protein stability index of a GFP-peptide fusion (GPS, HEK-293T) (PSI 1-6); higher = more stable
Settings: c terminus: a fixed tail appended
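Further: 24-mer peptide tiles fused after GFP, lentivirally expressed, FACS-sorted into six equal bins by GFP/DsRed ratio, decoded by Illumina sequencing, PSI is the read-weighted mean bin number.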

Sequence	protein stability index (treatment: DMSO)	protein stability index (treatment: MLN4924 1 uM, 8 h)
HPVLHKEEKQHLERLNKEYQEIFQ [TRIM43]	3.9 ± 0.47	4.06 ± 0.4
HQKLEREARICRLLKHSNIVRLHD [CAMK2B]	2.58 ± 0.17	2.66 ± 0.43
HSCTCVLYTPSNEHFGIVPLEAMY [ALG2]	2.43 ± 0.38	2.41 ± 0.22
HTPSDTGVSFQAISSMADFWDFAQ [PKD2L1]	2.85 ± 0.36	3.01 ± 0.35
HVEEHFQLLARRMQVDKKRVYLAT [FUT8]	2.32 ± 0.14	2.29 ± 0.45
HVLIHNTLQQLQAALRLAPAPALP [SERTAD3]	2.51 ± 0.47	2.55 ± 0.2
HVPEGFDPTGPAGLGRPTPGLSQG [EHMT1]	4.4 ± 0.27	4.51 ± 0.11
HYRASEEEPEYGEEIKGYPGVQAP [CHGB]	4.64 ± 0.23	5.04 ± 0.36
IAVKTLGIGKNVICDRTATPLDAF [GFOD1]	2.43 ± 0.14	2.53 ± 0.17
ICTQKCALNWTDIPVAMEHQPPYI [VPS39]	2.25 ± 0.48	2.12 ± 0.11
IDEIISLESSYNDEMLSYLPGGTT [TFE3]	3.96 ± 0.16	3.88 ± 0.32
IDYKTTTILLDGRRVKLQLWDTSG [RAB40B]	2.42 ± 0.12	2.56 ± 0.24
IEAAVQDRLNEQEGVPSVFNPPPS [FAF2]	5.06 ± 0.17	5.04 ± 0.15
IERSKIVSTMRCKTRQKSEKQMEE [PPEF2]	4.5 ± 0.21	4.5 ± 0.1
IEVFRRKRKMHLVFEYCDHTLLNE [CDKL4]	2.54 ± 0.98	2.33 ± 0.14
IFEPPVRNSGIIGGKYLGRTKVVK [EFHC1]	3.42 ± 0.3	3.62 ± 0.28
IFLNGNRERPLNVFCDMETDGGGW [TNXB]	1.91 ± 0.48	2.67 ± 0.54
IFRSKLKNRPSSEGSINKILSGLD [CDC14A]	2.27 ± 0.32	2.69 ± 0.42
IGPFGGFFASGFKRAFKIKDFANT [CDS2]	2.32 ± 0.27	2.15 ± 0.4
IGQVHEEFKQNIENVSVEMLLRKF [FCHO1]	3.05 ± 0.3	3.32 ± 0.23
IHFTLIQAFCCENDINILRVSNPG [GADD45A]	3 ± 0.46	2.71 ± 0.45
IIHEAGYSEEECKQYKAVVYSNTI [GNAI1]	2.81 ± 0.04	2.77 ± 0.45

Sequence	protein stability index (treatment: DMSO)	protein stability index (treatment: MLN4924 1 uM, 8 h)
IIVNLLWFIHLVFVVLAFLTGVLC [TMEM192]	2.78 ± 0.58	2.3 ± 0.48
IKALFRKGKVLAQQGEYSEAIPIL [FKBP8]	2.54 ± 0.38	2.36 ± 0.42
IKEVQKGGPADLAGLEDEDVIIEV [PDZK1]	2.22 ± 0.27	2.49 ± 0.12
ILDTAGTEQFTAMRDLYMKNGQGF [RAP1B]	3.29 ± 0.36	3.46 ± 0.36
ILREFEELHRRLDEEQQVLLSRLE [TRIM39]	3.43 ± 0.3	3.63 ± 0.12
IMPDGTIVTTVTTVQSRPRIDGKL [C2CD2L]	3.31 ± 0.16	3.29 ± 0.39
INHGAEVTCKDKKGYTPLHAAASN [ANKRD44]	4.23 ± 0.16	4.2 ± 0.24
INIKGISEAKADKILAEAAKLVPM [RAD51]	2.62 ± 0.15	2.42 ± 0.15
INLEGKTFYSKKDRPLCKSHAFSH [PDLIM7]	2.55 ± 0.077	2.71 ± 0.33
INTLNGLKLQTKTIKVSYARPSSA [ELAVL3]	2.38 ± 0.2	2.39 ± 0.26
IQYEMEYTEGISQRMRVPEKLKVA [MFF]	2.98 ± 0.28	3.08 ± 0.64
IRINPQSWFDNGSICMRMEILGCP [CPXM2]	2.86 ± 0.53	2.68 ± 0.59
IRNEQFAIRRFQSMPVRLLGHSPV [CDC25B]	2.71 ± 0.4	2.71 ± 0.21
ITMYAVGVGKAIEEELQEIASEPT [MATN2]	3.18 ± 0.13	3.16 ± 0.19
ITVGLVFLCLQYRLRGKLRAEIEN [MOG]	3.18 ± 0.42	3.29 ± 0.33
IVLAACSDYFCAMFTSELSEKGKP [KLHL12]	2.76 ± 0.42	3.05 ± 0.64
IYLATSSSKFYDLFLMECEESPNG [RHOBTB1]	2.66 ± 1.7	2.71 ± 0.98
KAEECDTITLNCPRNSDMKNQGEE [EDARADD]	5.62 ± 0.32	5.51 ± 0.31
KAELGALPHDFIDSLEKTDDDKYK [NLN]	5.31 ± 0.2	5.2 ± 0.32
KANNLSSLSKKYRQDAKYLNMRST [SEC22B]	3.23 ± 0.11	3.33 ± 0.24
KAPSTDDATWAAVAACTKEIDTQG [C10orf62]	5.14 ± 0.2	5.11 ± 0.09
KATFMYEQFPELMNMLWSRMLKDN [CLINT1]	2.28 ± 1.1	2.37 ± 0.4

Sequence	protein stability index (treatment: DMSO)	protein stability index (treatment: MLN4924 1 uM, 8 h)
KCKKKITGEIMHALKMTWHVHCFT [PDLIM7]	2.81 ± 0.81	2.7 ± 0.12
KDDKDFTGTVHRIDNTTVIYNSNI [KCNA1]	4.29 ± 0.2	4.37 ± 0.2
KDPAYFYGYVYFRQVRDKTLKRGY [DENND6A]	2.44 ± 0.31	1.96 ± 0.29
KEAFDTIQEQKVVLEENGEKNQVQ [SASS6]	5.49 ± 0.34	5.71 ± 0.11
KEKANSLKNEIQEVEELDNWQPAV [SPATS1]	5.24 ± 0.2	5.25 ± 0.27
KGTSPSSKYVKLNVGGALYYTTMQ [KCTD10]	2.28 ± 0.091	2.2 ± 0.14
KHYRLQFYMFAWTHVTLLITVTQS [CDS1]	2.93 ± 0.18	3.16 ± 0.16
KIQNHGHRVLQRLEQRRQQASERE [FCHSD1]	4.28 ± 0.28	4.51 ± 0.075
KIREQNLQDIKTAGPQSQVLCGVV [ADD1]	3.15 ± 0.43	3.37 ± 0.24
KKHKNSQLDKNSEVYQEVQAMFDT [FAM98B]	4.31 ± 0.39	4.27 ± 0.35
KKKSVAMHTNYLSACSFTNSDMQI [GNB5]	2.8 ± 0.12	2.8 ± 0.14
KKLRLNGGRNPYEGRVEVLVERNG [LOXL2]	3.05 ± 0.13	4.01 ± 0.18
KKNSSPPLSLYGQLLWREFFYTAA [CRY1]	2.42 ± 0.46	2.67 ± 0.63
KKRTEQEETIASLQMEVCRLKKEE [CEP70]	5.22 ± 0.2	5.19 ± 0.38
KLDLWSFLDIPRSRLVKYPLLLKE [NET1]	2.21 ± 0.52	1.94 ± 0.47
KLKNTVTIQQEKLLAEKEEKLQKE [SASS6]	5.1 ± 0.46	5.2 ± 0.31
KLSPLRDRLVVTECQLTHSHPACP [ZSWIM9]	3.56 ± 0.38	3.55 ± 0.27
KLVHFLLLKYRAREPVTKAEMLGS [MAGEA6]	2.81 ± 0.48	2.78 ± 1.3
KLWDPVDGSVVRDFEHRPKAPVVE [WDR88]	4.08 ± 0.23	4.23 ± 0.2
KLWNPRNFKAHVSPHEMLQAVVLC [USP39]	2.63 ± 0.57	2.88 ± 0.47
KMDFKTNILLKNLVTIARKASLWQ [TRIM43]	2.7 ± 0.49	2.62 ± 0.92
